{"source": "paper PMC4176381", "about": "“A combination of computational and experimental approaches identifies DNA sequence constraints associated with target site binding specificity of the transcription factor CSL”", "key": {"GST-Su(H) (CSL) [1]": {"target": "T1, GST-Su(H) (CSL) (UniProt P28159 110-594)", "T1 sequence (P28159 110-594)": "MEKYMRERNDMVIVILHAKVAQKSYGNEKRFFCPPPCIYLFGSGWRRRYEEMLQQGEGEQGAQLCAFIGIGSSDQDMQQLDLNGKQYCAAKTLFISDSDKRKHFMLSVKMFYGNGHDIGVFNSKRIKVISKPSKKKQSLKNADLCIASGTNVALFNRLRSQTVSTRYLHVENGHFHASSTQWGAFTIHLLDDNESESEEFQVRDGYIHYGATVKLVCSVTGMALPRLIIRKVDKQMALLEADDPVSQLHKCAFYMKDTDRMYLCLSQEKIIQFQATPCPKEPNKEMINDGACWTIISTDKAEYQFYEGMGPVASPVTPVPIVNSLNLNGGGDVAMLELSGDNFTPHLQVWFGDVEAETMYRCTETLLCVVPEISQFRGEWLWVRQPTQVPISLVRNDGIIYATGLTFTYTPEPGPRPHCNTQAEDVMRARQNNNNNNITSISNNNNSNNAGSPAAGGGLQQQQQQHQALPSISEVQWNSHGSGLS", "experiment": "competition; EMSA, labeled M1 probe; 2.4-fold vs M3; ITC: 50 mM sodium phosphate pH 6.5, 150 mM NaCl, 10 C (10 uM CSL in cell, 100 uM DNA in syringe). EMSA: 150 mM KCl, 50 mM Tris pH 7.4, 1 mM DTT, 2% polyvinyl alcohol, 30 ng/ul poly(dI-dC), on ice 30 min, 25 fmol biotin probe in 5 ul", "settings": "protein: recombinant; tags: N-terminal GST; blunt"}, "CSL (RBPJ) [2]": {"target": "T2, CSL (RBPJ) (Mus musculus, UniProt P31266 53-474)", "T2 sequence (P31266 53-474)": "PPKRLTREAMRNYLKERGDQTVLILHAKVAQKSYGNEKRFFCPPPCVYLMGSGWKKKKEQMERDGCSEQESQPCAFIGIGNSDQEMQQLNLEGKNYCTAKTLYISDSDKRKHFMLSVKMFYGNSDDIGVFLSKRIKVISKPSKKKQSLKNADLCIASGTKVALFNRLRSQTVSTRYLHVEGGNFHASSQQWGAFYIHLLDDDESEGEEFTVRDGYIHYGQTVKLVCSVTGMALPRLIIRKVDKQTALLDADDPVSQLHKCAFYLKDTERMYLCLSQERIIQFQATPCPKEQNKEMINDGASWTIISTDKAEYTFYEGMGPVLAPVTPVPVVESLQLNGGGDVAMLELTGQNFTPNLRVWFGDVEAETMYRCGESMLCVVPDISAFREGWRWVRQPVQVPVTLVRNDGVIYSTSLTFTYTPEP", "experiment": "ITC; no binding detected; ITC: 50 mM sodium phosphate pH 6.5, 150 mM NaCl, 10 C (10 uM CSL in cell, 100 uM DNA in syringe). EMSA: 150 mM KCl, 50 mM Tris pH 7.4, 1 mM DTT, 2% polyvinyl alcohol, 30 ng/ul poly(dI-dC), on ice 30 min, 25 fmol biotin probe in 5 ul", "settings": "protein: recombinant; tags: GST tag cleaved off"}, "CSL (RBPJ) [3]": {"target": "T2, CSL (RBPJ)", "experiment": "ITC; K = 2.0 +/- 0.5 x10^6 M-1; n=3; ITC: 50 mM sodium phosphate pH 6.5, 150 mM NaCl, 10 C (10 uM CSL in cell, 100 uM DNA in syringe). EMSA: 150 mM KCl, 50 mM Tris pH 7.4, 1 mM DTT, 2% polyvinyl alcohol, 30 ng/ul poly(dI-dC), on ice 30 min, 25 fmol biotin probe in 5 ul", "settings": "protein: recombinant; tags: GST tag cleaved off"}, "CSL (RBPJ) [4]": {"target": "T2, CSL (RBPJ)", "experiment": "ITC; K = 2.2 +/- 1.4 x10^7 M-1; n=3; ITC: 50 mM sodium phosphate pH 6.5, 150 mM NaCl, 10 C (10 uM CSL in cell, 100 uM DNA in syringe). EMSA: 150 mM KCl, 50 mM Tris pH 7.4, 1 mM DTT, 2% polyvinyl alcohol, 30 ng/ul poly(dI-dC), on ice 30 min, 25 fmol biotin probe in 5 ul", "settings": "protein: recombinant; tags: GST tag cleaved off"}, "GST-Su(H) (CSL) [5]": {"target": "T1, GST-Su(H) (CSL)", "T1 sequence (P28159 110-594)": "as the sequence (P28159 110-594) above", "experiment": "competition; not detectable at 125x excess; ITC: 50 mM sodium phosphate pH 6.5, 150 mM NaCl, 10 C (10 uM CSL in cell, 100 uM DNA in syringe). EMSA: 150 mM KCl, 50 mM Tris pH 7.4, 1 mM DTT, 2% polyvinyl alcohol, 30 ng/ul poly(dI-dC), on ice 30 min, 25 fmol biotin probe in 5 ul", "settings": "protein: recombinant; tags: N-terminal GST; blunt"}, "CSL (RBPJ) [6]": {"target": "T2, CSL (RBPJ)", "experiment": "ITC; K = 5.9 +/- 1.0 x10^5 M-1; n=3; ITC: 50 mM sodium phosphate pH 6.5, 150 mM NaCl, 10 C (10 uM CSL in cell, 100 uM DNA in syringe). EMSA: 150 mM KCl, 50 mM Tris pH 7.4, 1 mM DTT, 2% polyvinyl alcohol, 30 ng/ul poly(dI-dC), on ice 30 min, 25 fmol biotin probe in 5 ul", "settings": "protein: recombinant; tags: GST tag cleaved off"}, "GST-Su(H) (CSL) [7]": {"target": "T1, GST-Su(H) (CSL)", "experiment": "competition; failed to compete at 125x; ITC: 50 mM sodium phosphate pH 6.5, 150 mM NaCl, 10 C (10 uM CSL in cell, 100 uM DNA in syringe). EMSA: 150 mM KCl, 50 mM Tris pH 7.4, 1 mM DTT, 2% polyvinyl alcohol, 30 ng/ul poly(dI-dC), on ice 30 min, 25 fmol biotin probe in 5 ul", "settings": "protein: recombinant; tags: N-terminal GST; blunt"}, "GST-Su(H) (CSL) [8]": {"target": "T1, GST-Su(H) (CSL)", "experiment": "EMSA; labeled probe; self-competes at 25x excess; ITC: 50 mM sodium phosphate pH 6.5, 150 mM NaCl, 10 C (10 uM CSL in cell, 100 uM DNA in syringe). EMSA: 150 mM KCl, 50 mM Tris pH 7.4, 1 mM DTT, 2% polyvinyl alcohol, 30 ng/ul poly(dI-dC), on ice 30 min, 25 fmol biotin probe in 5 ul", "settings": "protein: recombinant; tags: N-terminal GST; label: 3' biotin when used as probe; blunt"}, "GST-Su(H) (CSL) [9]": {"target": "T1, GST-Su(H) (CSL)", "experiment": "competition; EMSA, labeled M1 probe; 2.84-fold at 10x; ITC: 50 mM sodium phosphate pH 6.5, 150 mM NaCl, 10 C (10 uM CSL in cell, 100 uM DNA in syringe). EMSA: 150 mM KCl, 50 mM Tris pH 7.4, 1 mM DTT, 2% polyvinyl alcohol, 30 ng/ul poly(dI-dC), on ice 30 min, 25 fmol biotin probe in 5 ul", "settings": "protein: recombinant; tags: N-terminal GST; blunt"}}}
{"binder": "M4 (S3, CGTGTGAA) (dsDNA) DNA 1: ACCGAAACCGTGTGAACTGGTAGAAAG DNA 2: CTTTCTACCAGTTCACACGGTTTCGGT", "values": [{"measurement": "binding signal", "setting": "GST-Su(H) (CSL) [1]", "result": "9 fold difference vs M1 at 25x excess"}]}
{"binder": "ITC duplex TCATACCT (dsDNA) DNA 1: GCTACTCATACCTAGAACG DNA 2: CGTTCTAGGTATGAGTAGC", "values": [{"measurement": "binding result", "setting": "CSL (RBPJ) [2]", "result": "no binding"}]}
{"binder": "ITC duplex TGTGGGAA (dsDNA) DNA 1: GTTACTGTGGGAAAGAAAG DNA 2: CTTTCTTTCCCACAGTAAC", "values": [{"measurement": "Kd", "setting": "CSL (RBPJ) [3]", "result": 500, "unit": "nM"}]}
{"binder": "ITC duplex CGTGGGAA (dsDNA) DNA 1: GTTACCGTGGGAAAGAAAG DNA 2: CTTTCTTTCCCACGGTAAC", "values": [{"measurement": "Kd", "setting": "CSL (RBPJ) [4]", "result": 60, "unit": "nM"}]}
{"binder": "M11 (S10, CATGGGGA) (dsDNA) DNA 1: ACCGAAACCATGGGGACTGGTAGAAAG DNA 2: CTTTCTACCAGTCCCCATGGTTTCGGT", "values": [{"measurement": "binding result", "setting": "GST-Su(H) (CSL) [5]", "result": "no binding"}]}
{"binder": "ITC duplex CGTGTGAC (dsDNA) DNA 1: GTTACCGTGTGACAGAAAG DNA 2: CTTTCTGTCACACGGTAAC", "values": [{"measurement": "Kd", "setting": "CSL (RBPJ) [6]", "result": 1720, "unit": "nM"}]}
{"binder": "M8 (S7, TATAAGAA) (dsDNA) DNA 1: ACCGAAACTATAAGAACTGGTAGAAAG DNA 2: CTTTCTACCAGTTCTTATAGTTTCGGT", "values": [{"measurement": "binding result", "setting": "GST-Su(H) (CSL) [7]", "result": "no binding"}]}
{"binder": "M1 (S1, CGTGGGAA) (dsDNA) DNA 1: ACCGAAACCGTGGGAACTGGTAGAAAG DNA 2: CTTTCTACCAGTTCCCACGGTTTCGGT", "values": [{"measurement": "binding result", "setting": "GST-Su(H) (CSL) [8]", "result": "binds"}]}
{"binder": "M3 (S2, TGTGGGAA) (dsDNA) DNA 1: ACCGAAACTGTGGGAACTGGTAGAAAG DNA 2: CTTTCTACCAGTTCCCACTGTTTCGGT", "values": [{"measurement": "binding signal", "setting": "GST-Su(H) (CSL) [9]", "result": "3.67 fold difference vs M1 at 25x excess"}]}
